The source of these data is the supplement of paper PMC12042874.

± gives the uncertainty stated by the source.

This data set can be described thus: amyloid nucleation score (Sup35N fusion, yeast selection) (log enrichment); library NNK3; higher = more nucleation; inactive = no reads after selection. In outline:
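Growth for 7 days at 30°C on medium lacking adenine and uracil followed a 24-hour induction with 100 μM copper sulfate of psi-negative yeast expressing peptides of 20 random codons fused to Sup35N. Input and output plasmid inserts were sequenced with Illumina, and sequences with under 100 input reads were excluded. Nucleation score is the DiMSum log enrichment of output over input reads, centred on the mode score of non-aggregating sequences.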
As for TNNINALMLAIPINEYVVGH, the amyloid nucleation score result was “inactive”. As for WIHRMLSSGVDSPRNTSLWT, the entry is “inactive”; as for LCTLSCFAICD, 0.74 ± 0.18; as for SSQVET, “inactive”. QFVCHHGSPAFPNDGVAKLL: the amyloid nucleation score entry is “inactive”.

For the substance RWSVLAVSCM, the amyloid nucleation score entry is “inactive”. As for RFGFSVKFMYDDGMSAVCTS, the entry is “inactive”; as for NLCNWLSCSRTSCNLRLR, “inactive”; as for HPLAAGHGVYFSSCIFK, 1.7 ± 0.097. With SNFVVSNPISSRGTMNIRII the entry was “inactive”.

On to LRAICKSCGVASGYVAAPRA, for which the amyloid nucleation score was -0.478 ± 0.52. As for NYVICVYFMAGVSACMTLLV, the entry is “inactive”; as for DSHGYIYLCVWVRTQNPWSV, “inactive”; as for RVLNS, “inactive”. As for YWVRNVGYRRNSSSCTWSRG, the amyloid nucleation score entry is “inactive”.

Consider IHIGTPFRGSHTFASVRRK, for which the amyloid nucleation score entry was “inactive”. As for KVCGCSILLLKLRGVNRVVS, the entry is “inactive”; as for VIFKKGLRLFTSSCDWSISD, “inactive”; as for LRPCRDRRFLVPDDYSSVFF, “inactive”. As for RWLASNVDPKITSEIQPGAS, the amyloid nucleation score entry was “inactive”. With FLNLIYNLGRLWFQQLTRFK the entry was “inactive”. With RCFGKIC the entry was “inactive”. As for ESLIGSQGQRSNYNIMGNGW, the entry is “inactive”; as for KQRVASTTTVAPHPKNKD, “inactive”.

Turning to KYGVLLRIHR, the amyloid nucleation score turned out to be 0.499 ± 0.72. For the substance RNVCMSEVGSVDKSSLLHGN, the amyloid nucleation score result was “inactive”. As for CVCPKANVEYPMACFRHIIV, the entry is “inactive”; as for MEYWYYDMD, “inactive”; as for AASIFGNSV, “inactive”.

On to KVIDGFLTLLSVNHRCKAWQ, for which the amyloid nucleation score entry is “inactive”.

RFLFNKRL: the amyloid nucleation score is -0.029 ± 0.81. With FWIVSVTYFNCLVDWGEGCM the figure was 2.05 ± 0.091; with DSDVWANAGHRLSLKMI, “inactive”. With RWPEPFSWFRFDYQIRDVVF, the amyloid nucleation score entry is “inactive”.

Consider TSNRGDWVHFTVYSFYESTM, for which the amyloid nucleation score entry is “inactive”. On to KSWNGQMYCVASGKQKTIMY, for which the amyloid nucleation score entry was “inactive”. As for KCLMNFTVMRGASSCLEVPC, the entry is “inactive”; as for LWHKMSDMV, “inactive”.

With FIFSTLHNVLHGSNRVNSVW, the amyloid nucleation score result was “inactive”. With HSFFVVQAS the entry was “inactive”; with PHFQTFRDYVLCGISFSYCE, 1.46 ± 0.1. As for RLGMWVFWCRL, the entry is “inactive”; as for PRQRLMMWSRRG, “inactive”; as for TKLWFCNFCYSLDAGIGKCV, 2.37 ± 0.077. With YGSIIV the entry was “inactive”; with LLFENIQK, “inactive”. On to LNVCVMEKNSNLRWSYWDLC, for which the amyloid nucleation score stood at 1.09 ± 0.15. As for FWNVLWATRLYFFSFYDITS, the entry is “inactive”. As for FLLTYVNIRGMQP, the figure is 1.49 ± 0.099; as for NNSASNPILFGRYVTASREY, “inactive”. Regarding AQEYRMQHRLGGL, the amyloid nucleation score entry was “inactive”. With GVLVTANLYFWMEPSALPAM, the amyloid nucleation score result was “inactive”. With ANMKINVVLLNDCGWGR the figure was 1.5 ± 0.12. As for AMVTVELSDNYFWNLHTVAS, the entry is “inactive”. On to EDIEMEMLLLGCNLEVLNAK, for which the amyloid nucleation score entry is “inactive”. Consider RFIGFYPLLQGKNAASGRVL, for which the amyloid nucleation score entry is “inactive”.

Consider SSMLI, for which the amyloid nucleation score result was “inactive”. With ALVAKVVIGSRW the figure was 0.569 ± 0.3; with CHNKKWVDFNVCFYNMLSFY, “inactive”; with FIYSHTVWFRNYLHMYPILF, “inactive”.

On to TSMSGDVHVVYVVVEHVKPP, for which the amyloid nucleation score is 2.46 ± 0.089.

Regarding TASCEYFELQPIKNLH, the amyloid nucleation score result was “inactive”. With DDVLYS the figure was -0.19 ± 0.34; with VSRYGYCCRRIYAELHGFPD, “inactive”; with AGGCFISARSIRNCAHMLSR, “inactive”. Take SLMLLRRTAVRPHWWKLRPN: the amyloid nucleation score result is “inactive”. With FILYMCKCS the entry was “inactive”. As for KYVYYSFLERSFDYMYFSRQ, the entry is “inactive”; as for IADSKHTNCFRYMSHVW, “inactive”; as for YYDMIMLPAKSDANRCYGCA, “inactive”.

FPGSS: the amyloid nucleation score result was “inactive”. In turn, IGRNSSKIFLFFCSCMRMFS showed an amyloid nucleation score of 2.95 ± 0.077. As for NPDCSQTMARGLRNSLVFLQ, the entry is “inactive”. With RSTWEQ the entry was “inactive”; with KDMMWDVSRPYFYLVTYQIG, “inactive”; with DMINSGQISDHVLD, “inactive”. Regarding SVLLHLNRNVMWTMPSRGAF, the amyloid nucleation score result is “inactive”. As to VDWWSALEDYYSLELLMEVK, the amyloid nucleation score entry was “inactive”.

Consider IQDFSCFQRSEAVTIQGRS, for which the amyloid nucleation score entry was “inactive”. With GQDWIAV the entry was “inactive”; with YWFDSPPSFRAYPCWNR, “inactive”; with WAVCKAHDVSVDTDYYSSTG, 0.302 ± 0.45.

Regarding LMANVGPAWLQSFAIRGTSH, the amyloid nucleation score entry is “inactive”. As for YGCKANSPLL, the entry is “inactive”. In the case of RSVVMYALSIFYVRFTANQN, the amyloid nucleation score was determined as 0.755 ± 0.23.

Turning to QSGSVCIGSHASLRRAVVRR, the amyloid nucleation score result was “inactive”. As for SSDILASFGCYSNFHLSHII, the entry is “inactive”. As for RWAKSEAVLLVFGEFSLVGW, the entry is “inactive”; as for IENRFVSFLYL, 1.88 ± 0.075; as for FKLVGCGCNVMTFVSYLVNQ, 1.98 ± 0.083. With DLSTTLINPIEEQPYHFAVP the entry was “inactive”; with YSSPRSVNSYGLDYVYRTA, “inactive”. Turning to RHMFVSSSKRWKFSSNTYRT, the amyloid nucleation score entry is “inactive”.

In the case of SLTFTLCRVHGGRESRVSLG, the amyloid nucleation score came to 0.319 ± 0.81. With PTRFMTMKETKPVCWWLGNR the figure was -0.114 ± 1.1. With YLASEVYRV the entry was “inactive”. With YTKATHSVMFGFTVIVVF the entry was “inactive”; with LRASTPYHPMLFELGKLALI, “inactive”. Regarding HIYRYLMS, the amyloid nucleation score entry is “inactive”. In the case of YTMVWFLSSYSNY, the amyloid nucleation score entry was “inactive”. As for IVYMAATKLMVVNSLCNGRG, the figure is 2.04 ± 0.09; as for YLSSIW, “inactive”; as for TLVGTFYSMQRSDRIWR, 0.475 ± 0.69.

Take TFKPDQYRFVHEYSTMRVLM: the amyloid nucleation score result is “inactive”.

Regarding WLDWSAGHCGYVKLLW, the amyloid nucleation score entry is “inactive”. CRYSYSELKFVLFSGVGTSD: the amyloid nucleation score result is “inactive”. With VLLQKGTETECGLAIVQLKW the entry was “inactive”.

On to VRVELNYKMMHMSHRIMY, for which the amyloid nucleation score was found to be 1.52 ± 0.073. With LVDHLFDMITMHDGPCQLHQ the entry was “inactive”; with KMCIDFEPELYNLFLLAFHQ, “inactive”. With KDIYYTSFILPDEWITG the entry was “inactive”. With PMMGSLYFVP the entry was “inactive”; with RLRCLYTSEISVGIGNNWVS, “inactive”. Take LFSQHYWIVSIFIASWIRYC: the amyloid nucleation score result is “inactive”. The substance FECYRSSLGQWVMLDVSIHW came in with an amyloid nucleation score of -0.534 ± 0.87.

Take MKLDICWLRLSRCYVVVVWV: the amyloid nucleation score result was “inactive”. Regarding NSKSVSWMFMPLQAFLCLIG, the amyloid nucleation score result is “inactive”.

On to PLTFRTMVFKALVEAWRKFN, for which the amyloid nucleation score result was “inactive”. As for HWFLYLPFSPYCIPRIPDYL, the entry is “inactive”; as for SGISIVIPFPRGVQMT, -0.47 ± 1; as for NEHSYLSGSWYPRSHLIYYC, “inactive”. With CDWRESVFRRAVTLPVALWM the entry was “inactive”; with IAYIT, “inactive”; with GGPSYSLSLWLSKVSCLQGG, 0.63 ± 0.34. As for QYGSLGSTYTSAYLWRLYVL, the entry is “inactive”. For the substance MLHFG, the amyloid nucleation score entry is “inactive”. Turning to LKRYDVQSSTGVNLTYGTYT, the amyloid nucleation score entry is “inactive”. As for IMSSTGIFNLLRAESMCSLF, the entry is “inactive”; as for NSLNMRFTLQQTLMGQMNYV, “inactive”. As for KGSDFSEFVAWRLLTAYRVP, the entry is “inactive”.

The substance MDGPGVTFCPEVLDKWDGSI had an amyloid nucleation score of -0.205 ± 1.4.
